Data published in the supplement of paper PMC10567573.

B1: ZNF193 (parent)
chain: QKRYHCKECGKVFSQSAGLIQHQR

Variants of: B1
Experiment: protein stability index of a GFP-peptide fusion (GPS, HEK-293T) (PSI 1-6); higher = more stable
Conditions: c terminus: a fixed tail appended
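Note: lentivirally expressed fusions sorted by FACS into six bins by GFP to DsRed ratio, PSI derived from sequencing read proportions per bin multiplied by bin number.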

Protein stability index, by site and new letter:
S16: I 2.98, W 2.99, P 3.44, K 3.53, L 3.59, F 2.86, V 2.62, G 2.7, Q 3.88, E 4.39, T 2.27, M 3.72, A 3.71, C 2.9, N 3.11, R 3.97, H 3.77, D 2.47, Y 3.8
Q15: I 1.92, E 3.85, S 4.11, M 2.06, R 3.08, C 3.93, K 3.45, A 2.83, P 1.58, D 4.51, N 4.24, L 1.99, V 2.16, F 2.28, G 2.8, Y 2.73, H 2.91, T 4.01, W 2.06
I20: A 3.06, M 2.86, Y 2.98, E 2.91, Q 2.83, R 3.5, D 3.02, F 2.45, K 3.26, W 2.4, G 2.38, T 3.09, S 2.69, H 3.31, N 2.5, V 3.22, L 3.08, C 3.95, P 2.27
Q23: K 3.36, L 2.69, D 2.29, E 2.55, N 2.36, F 2.05, S 2.54, M 3.13, P 1.74, C 2.81, H 2.97, G 2.07, I 2.57, R 2.85, A 2.5
C9: Y 2.7, S 3.11, P 3.04, K 3.64, H 3.13, N 3.17, A 3.45, M 2.63, G 3.2, I 2.83, D 3.97, V 3.07, Q 3.19, T 3.27, R 3.38, L 2.52, F 2.17, E 3.64, W 2.58
K11: V 2.18, R 2.01, A 3.19, G 1.83, C 2.3, L 2.47, Y 1.7, N 1.66, H 2.34, T 2.64, S 2.37, E 3.1, W 2.32, P 2.12, I 2.32, F 1.82, M 3.23, D 1.88, Q 3.04
S14: R 3.03, Y 3.25, C 2.58, A 3.47, H 2.98, W 2.08, K 3.23, E 3.77, L 3.16, N 2.78, P 2.72, G 2.54, Q 2.86, T 3.06, M 2.93, I 2.64, F 2.68, V 2.53, D 3.47
G18: W 1.68, L 3.01, T 2.65, Y 2.31, D 4.32, P 2.29, A 3.12, H 2.84, E 4.13, M 2.06, K 2.8, I 2.4, C 2.7, F 2.26, S 2.22, Q 3.55, N 2.32, V 2.09, R 2.86
V12: F 2.67, R 3.33, G 2.77, K 3.2, S 3.27, A 2.43, Y 2.75, C 2.81, M 2.6, T 3.52, P 2.17, I 2.76, D 3.27, H 2.82, N 2.78, W 2.82, E 3.23, L 2.25, Q 2.82
F13: W 2.03, R 2.17, M 1.82, Q 2.29, T 1.91, E 2.42, L 2.5, Y 1.99, I 2.42, N 1.67, V 2.05, D 1.72, H 3.12, A 1.81, P 2.39, G 1.87, C 2.15, S 2.12, K 2.25
G10: I 1.51, K 1.98, N 2.5, D 1.79, A 1.96, P 2.33, S 2.11, W 2.02, T 1.83, V 1.46, L 1.95, Y 1.67, E 2.01, H 1.84, M 2.12, R 2, F 2.03, Q 2.29, C 1.83
K7: V 2.99, F 2.53, H 2.94, G 2.92, Q 3.15, N 3.23, P 3.33, L 2.95, I 2.69, R 2.66, A 2.95, Y 3.1, E 3.52, M 2.6, S 3.35, W 2.49, D 3.15, T 2.74, C 2.65
C6: N 2.74, I 2.12, G 2.62, V 2.8, W 1.96, H 2.24, Q 2.28, P 2.18, S 2.88, Y 1.73, R 2.6, L 2.31, M 2.75, K 2.69, T 2.83
E8: I 2.98, S 2.59, N 2.99, A 2.75, M 2.6, T 2.94, D 2.93, H 3.81, F 2.56, L 2.75, Y 2.67, Q 2.91, R 3.12, P 2, V 2.68, W 2.71, K 3.5, G 2.66, C 4.26
Q21: L 2.57, W 2.44, N 3.02, K 2.6, I 2.1, P 2.08, S 2.47, C 3.06, F 1.91, H 2.88, R 2.69, E 3.7, D 3.82, V 2.37, M 2.55, T 2.61, Y 2.21, G 2.67, A 3.2
A17: F 2.27, V 2.48, G 2.54, P 2.02, S 3.02, R 3.21, W 2.86, M 1.82, N 3.05, E 3.51, Y 1.94, L 2.22, T 2.46, I 2.28, C 2.45, H 2.66, K 3.09, D 3.42, Q 2.76
L19: F 2.43, Q 2.45, C 3.12, S 1.97, D 2.35, W 2.41, I 2.2, R 2.55, G 2.37, A 2.45, K 2.34, Y 2.42, T 1.94, M 2.35, V 2.12, N 2.56, E 2.31, H 2.58, P 2.54
H22: W 1.99, R 1.62, C 2.04, E 1.59, K 2.14, L 1.75, V 1.33, S 1.9, Y 1.5, P 1.64, Q 2.1, A 1.16, T 2.05, I 1.73, M 1.84, D 2.1, F 2.66, G 1.41, N 1.67
